Laboratory results from US20250241939A1, “NUCLEIC ACID-BASED DELIVERY SYSTEMS AND USES THEREOF” (Kodikaz Therapeutic Solutions, Inc., priority 2022, published 2025).

Columns and labels:
[1] = system: MM1s (multiple myeloma) cell genome; assay: ctDNA coculture with MM1s cells, whole genome sequencing: genomic insertion sites, transposons at insertion points and SNVs (multiple myeloma); assay type: cell-based, human; conditions: for Gene: gene at identified genomic insertion site; for Gene / Location / Chr position / No. SNP: multiple myeloma; for Location / Chr position: identified genomic insertion site; for Location: chromosome; for No. SNP: number of single nucleotide variants (SNVs or SNPs) identified
Description: (§1) The integration of ctDNAs into the host cell genome was evaluated. ctDNA was extracted from patient plasma, cultured for 24 hours with cells of a matching cancer cell type or non-matching cancer cell type, and whole genome sequencing was performed. The cell lines used were MM1s (multiple myeloma, MM) and MIA (pancreatic cancer, PC).
Single nucleotide variants (SNVs) unique to the ctDNA that were found in the host cell genome under matching coculture conditions were identified.
The sequence data was used to reconstruct genomic contigs for each experimental condition by de novo assembly. […] Coculture contigs carrying a ctDNA insertion were identified using NucDiff analysis. BLAST alignment analysis further validated the gain of ctDNA fragments in coculture conditions and identified the transition points of ctDNA insertion (FIGS. 3A-3C). […] The remaining 20% inserted into a chromosomal location distinct from their site of origin.
(§2) Experiments were designed to identify the presence of transposons in ctDNA fragments. To map ctDNA genomic junctions more precisely, a PACBIO probe was ligated to multiple myeloma and pancreatic cancer ctDNA samples to label their 5′ and 3′ ends. Whole-genome sequencing of DNA from cells with ctDNA genomic integration was done using the Illumina platform. De novo assembly was performed on the sequencing output. ctDNA contigs containing PACBIO adaptor were then matched to those contigs containing inserted ctDNA sequences identified in the coculture experiments. Transposable element on ctDNA sequences at the insertion points (<100 nucleotides from transition point between cell and ctDNA) were detected and classified using RepeatMaster.
(§3) A search was conducted for transposons that preferentially target cells of matching tumor types. The lists of transposons identified at the ctDNA insertion point in matching and mismatched coculture conditions were compared (e.g., MM ctDNA with MM cells or PC cells). Transposons were selected that were uniquely or preferentially inserted in the matching conditions.
In multiple myeloma, AluSp, MER11, MER11C, AluJb, and L2a, among other subfamilies of retrotransposons were identified at the MM ctDNA insertion sites (FIG. 5B and TABLE 7).
(§4) Whole-genome sequencing and Whole exon sequencing: ctDNA was extracted from 10 MM and 10 PC patients. DNA from CD138 (+) cells and from cell lines used in in vitro experiments (MM1s and MIA) was extracted using Blood & Cell Culture DNA Mini Kit (Quiagen, MD). DNA from […] paraffin embedded pancreatic tumors was obtained using QIAamp DNA FFPE Tissue Kit Print (Qiagen, MD).
(§5) After extraction, ctDNA was ligated to the PACBIO adaptor ([…]) using the ABM DNA Library Prep Kit for Illumina Sequencing (Applied Biological Materials Inc. Canada). PACBio-labeled ctDNA and regular ctDNA were subjected to standard methods for library preparation and sequencing using Illumina and Agilent protocols, respectively. Applied Biological Materials Inc. prepared the libraries and performed whole-exon and -genome sequencing. The average target coverage was 50×.
(§6) Identification of transposable elements and its nucleotide variants: To determine the locations of transposable-like regions in contigs, sequences were analyzed and transposable elements (TEs) were identified and classified using RepeatMasker version 4.1.0 and the Dfam database (release 3.1) of repetitive DNA families was used as a reference for identifying repeats in ctDNA contig sequences that were part of qualifying structural events. For each repeat sequence identified by RepeatMasker, the overall frequency of the specific repeat (e.g., for AluSp or L1) and their parent class (e.g., SINE) was computed.
Once the TE elements were identified, hit repeats/TE sequences, unique contigs for all samples, and insertion sequence were aligned with MAFFT software version. […]

[2] = system: MIA (pancreatic cancer) cell genome; assay: ctDNA coculture with MIA cells, whole genome sequencing: genomic insertion sites, transposons at insertion points and SNVs (pancreatic cancer); assay type: cell-based, human; conditions: TABLE 8, pancreatic cancer co-culture
Description: as §1
The sequence data was used to reconstruct genomic contigs for each experimental condition by de novo assembly. […] Coculture contigs carrying a ctDNA insertion were identified using NucDiff analysis.
as §2, §3, §4
as §5, with “sequencing.” for “sequencing. The average target coverage was 50×.”
as §6
Once the TE elements were identified, hit repeats/TE sequences, unique contigs for all samples, and insertion sequence were aligned with MAFFT software version. Mutations in TE sequences were identified by comparison of nucleotides at each position in the multiple sequence alignment with the “Biostrings” R package (version 4.1). A position was considered to contain mutation if the substitution was present in contigs of all samples.

With L1MB3 the blast orientation ([1]; TABLE 7, multiple myeloma co-culture, BLAST alignment orientation) was “Plus/Plus”, the blast chr ([1]; TABLE 7, multiple myeloma co-culture, chromosome with the longest result for BLAST analysis of the full contig) was “chr2” and the Distance from insertion ([1]; TABLE 7, multiple myeloma co-culture, distance between insertion and the transposon (0 if they overlap)) was −68. The “Location relative to insertion” value ([1]; TABLE 7, multiple myeloma co-culture, location of the transposon relative to the insertion on the contig) was “right”.

B1: 22 (nucleic acid, listed as Homo sapiens)
chain: CAGCGCAAGTAATATATCCTGGAATTGGAAGCAGAATGGGAACTATGGACTCAGTGAAGATTGTTCTGGACATTATTTGATTCTTCTTTCTCGCTGCCAATTGGATACTTTTTTTTTTTTTTGAGACAGAGTCT
B1 was tested, and the Gene [1] was “TBL1XR1”, the Location [1] was “Chr3” and the Chr position [1] was 176878250. For the same molecule, the “No. SNP” value [1] was 1.

B2: 21 (nucleic acid, listed as Homo sapiens)
chain: CAGCGCAAGTAATATATCCTGGAATTGGAAGCAGAATGGGAACTATGGACTCAGTGAAGATTGTTCTGGACATTATTTGATTCTTCTTTCTCGCTGCCAATTGGATACTTTTTTTTTTTTTTTGAGACAGAGTCT
B2 was tested, and the Gene [1] was “TBL1XR1”, the Location [1] was “Chr3” and the Chr position [1] was 176878250. The “No. SNP” value [1] was 1.

B3: MLT1J2 (nucleic acid, listed as Homo sapiens)
DNA: TGTGTTAGTCAGGATAGGCTAACCTCTGTAACACACAACCCCAATTTTTCAGTGGCTCAGAACAATAGGAGTTTCTTTCTTACTCATGTAAAGTCCAGGTGTGGCAGAAACTTGCGGGGGAGAAAGTCTACTCCACAGCATCACTCAGGGACCCAGGCTCCTGCCTTACGGTGGTTCCGCCATTTTCCAGGGCCTCGGAGTCCTCCATCCCATCTCCTCCATTCAGCTGGTGGATGTGGGAGGAGAGCGTGTATGAAAGACCACACAGAAGCTTTTTTTGGGCCAGGCTTTGAGACGGCGCACATCAGTTTCGCTCTTGTTGCCCAGGCTGGAGTGCAATGGCGCAATCTCGGCTCACCGCAAAAGACACTGGGAAATTTGGTCTGGCCATGTGTCTAGGAAGCAGAGGAGATGGGGTTTCATAAACTCCTGAACTCTCTCTACCACG
With B3 the blast orientation ([2]; BLAST alignment orientation) was “Plus/Plus”, the blast chr ([2]; chromosome with the longest result for BLAST analysis of the full contig) was “chr21” and the Transposon orientation ([2]; compared with the human reference genome) was “direct”. For the same molecule, the Distance from insertion ([2]; distance between insertion and the transposon (0 if they overlap)) was 0 and the “Location relative to insertion” value ([2]; location of the transposon relative to the insertion on the contig) was “intersect”.

B4: 13 (nucleic acid, listed as Homo sapiens)
chain: TATCGAAAATTCACCCCCGATATTCACGTAGGTTCTTTTCTATTTTCCCTAAGCGTCGGCAGGTTTGAGAAATAAAGGGACAGAGTACAAAAGAGAGAAATTTTAAAGCTGGGCGTCCGGGGGAGACATCACATGTTGGTAGGTTCCATGATGCCCCACAAGCCGTAAAAACCAGCAAGTTTTTATTAGTGATTTTCAAAAGGGGAGGGAGTGTACGAATAGGTGTGGGTCACAGAGATCACGTGCTTCACAAGGTAATAGAATATCACAAGGCAAATGGAGGCAGGGCGAGATCACAGGACCACAGGACCGGGGTGAAATTAAAATTGCTAATGAAGTTTTGGGCACCATTGTCATTGATAACATCTTATCAGGAGACAGGGTTTGAGAGACAACCGGTCTGACCAAAATTTATTAGGTGGGAATTTCCTCGTCCTAATAAGCCTGGGAGTGCTATGGGAGACTGGGGCTTATTTCATCCCGTAGAGGCAACCATAAAAGACAGGCCCAAGCGGCCATTTAGAGCCTCCCAGGACATTCTCTTTCTCAGGGTGTTCCTTGCTGAGAAAAAGAATTCAGATATTTCTCCATTTGCTTTTGAAAGAAGAGAAATATGGCTCTGTTCCCGGCTCACGGCGCAGATTTAAGGTTATCTCCTTTTCCCTGAACAATTGCTGTTATCCTGTTCTTTTTTCAAGGTGCCCAGATTTCATATTGTTCAAACACACATGCTTACAATTTGTGCAGTTAAGCAATATCACAGGGTCCTGAGGGACATACATCCTCCTCAGCTGACAGGATTAAGAGATTAAAGTAAAGACAGGCATAGGAAATCACAAGGGTATTGATTGGGGAAGTGATAAGTGTCCATGAAATCTTCACAATTTATGTTTAGAGATTGCAGTAAAGACAGGCATAAGAAATTATAAAAGTATTAATTTGGGGAACTAATAAATGTCCATGAAATCTTCACAATCCACGTTCTTCTGCCATGGCTTCAGCCGGTCCCTCCGTTCGGGGTCCCTGACTTCCCGCAACA
B4 was tested, and the Gene [1] was “none”, the Location [1] was “Chr14/ and Chr3” and the “No. SNP” value [1] was 4.

B5: 4 (nucleic acid, listed as Homo sapiens)
chain: TGATATGGTTTGGCTGTGTCCCCACCTAAATCTCATCTTGAATTGTAGTTCCCATAATCCCCATGTGTCATGGGAGGGACCCAGTGGGAGGTAATTTAATCCTGGGGGCAGTTACCCTCCTGCTATGTGTGTGTGTGTGTGTGTGTTCTCACGAGATCTGATGGTTTTATAAGGGGCTTTTCCCCCTTCGCTCGGCACTTCTCCTTCCTGCCGCCATGTGAAGAAGGACGTGTTTGCTTCCCCTTCCGCCATGATTGTAAGTTTCCTGAGGCCTCCCCAGCCATGCNGAACTGTGAGTCAATTAAACCTCTTTCCTTTATAAATTACCCAGTCTCGGGTGTGTCTTTATTAGCAGCGTGAGAACGGACTAATACA
modifications: misc_difference 287 a, c, t, g, unknown or other
With B5 the Gene [1] was “PI4K2B”, the Location [1] was “Chr4” and the “No. SNP” value [1] was 2.

B6: 20 (nucleic acid, listed as Homo sapiens)
chain: TTCTTCTCACGGAGTGAAACTTTTCCTTTGATTGAGCAGTTTCGAAACTCTCTTTTTGTAAAATCTGCAAGTGAACATTTGGAGTGCTTTGTGGCCTATGATAGAAAAGGAAATATTTTCACTTAAAATCTAGACAGAAGCAATCTGAGAAACTTCTTTGTGATGTTTGTATTCATCTTACATAGTTAAACCTTTCTTTTGATTGAGCAGTTTTGAAACTCTCTTTTTGTCGAATCTGTAAGAGGACATTTGGAGTGCTTTCAGGCCTATGGTGAAAAAGGAAGTATCTTCTCATGAAAACTAGACAGAAGAATTCAGACAAACTTCTTTGTGATGTGTGCATTTATCTCACAGACTTGAACCTTTCTTTTGATTGAGCAGTTTGAAACACTCTTTTTGTAGAATCTGCAAGTGGACATTTGGAGCACGTGGAGGCCTATAGTGGAAATGGAAATGTCTTCACACTAAAAACTAGACAGAAGAATTCTGAGAAACTTCTTTGTGATCTTTGCATTCATCTCACAGAGTTGAACCTTTCTTTTCATTGAGCAGTTTGAAAACACTCTTTTTGTAGAATCGGCAAGTGGACATTTGGAACGCATTGCAGACTATGATGGAAAAGGAAATATCTCCA
For B6, the Gene [1] was “AK311573”, the Location [1] was “Chr21” and the Chr position [1] was 10752909. For the same molecule, the “No. SNP” value [1] was 24.
